Here are results for two substances from patent US20220306715A1.

The target of one assay is anti-IL-6ST antibody. Briefly: sandwich ELISA on the MSD platform; capture: plate-bound anti-IL-6ST antibody; detection: anti-IL-12A antibody.
Assay [1] has as its target interleukin-6 (IL-6) receptor. Briefly: cell-based or functional assay.

“mIL-6R-Fc-IL-35 chimeric protein (from UniProt Q00560 23-617; P43431 23-215; P22272 20-364; O35228 19-228) (Fc fusion)” showed a concentration giving a half-maximal response (EC50 (read off the curve)) in the assay with anti-IL-6ST antibody of 0.7 µg/mL. Regarding tocilizumab (antibody), the EC50 of induction of apoptosis in IL-6 dependent DS-1 cells cultured 24 hours with IL-6 (caspase 3/7 luciferase assay) in assay [1] worked out at 317 nM.
